According to patent publication US20240327530A1 (ICHNOS SCIENCES, published 2024):

T1: Mouse IL-1RAP, membrane-bound on NIH-3T3 cells (mouse, UniProt Q61730 21-570)
T1 construct: Endogenous protein on cells
T1 sequence (looked up): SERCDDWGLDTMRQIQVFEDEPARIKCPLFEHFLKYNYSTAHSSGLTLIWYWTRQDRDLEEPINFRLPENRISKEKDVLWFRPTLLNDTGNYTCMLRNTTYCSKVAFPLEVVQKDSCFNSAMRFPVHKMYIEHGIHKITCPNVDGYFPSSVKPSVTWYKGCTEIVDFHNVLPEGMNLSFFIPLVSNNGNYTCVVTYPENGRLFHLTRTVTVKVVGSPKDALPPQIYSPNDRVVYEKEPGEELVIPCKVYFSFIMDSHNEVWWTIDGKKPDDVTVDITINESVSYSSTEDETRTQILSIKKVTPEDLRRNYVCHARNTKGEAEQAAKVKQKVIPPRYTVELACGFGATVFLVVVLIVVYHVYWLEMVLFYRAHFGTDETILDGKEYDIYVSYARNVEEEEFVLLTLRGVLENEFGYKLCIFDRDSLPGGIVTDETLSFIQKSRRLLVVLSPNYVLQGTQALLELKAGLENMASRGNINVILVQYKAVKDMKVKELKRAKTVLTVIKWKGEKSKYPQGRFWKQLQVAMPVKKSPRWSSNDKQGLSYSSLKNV

T2: Cynomolgus IL-1RAP on normal cynomolgus dermal fibroblasts (cynomolgus monkey, UniProt P59822 21-570 (rhesus entry))
T2 construct: Endogenous protein on cells; also called Cyno IL-1RAP
T2 sequence: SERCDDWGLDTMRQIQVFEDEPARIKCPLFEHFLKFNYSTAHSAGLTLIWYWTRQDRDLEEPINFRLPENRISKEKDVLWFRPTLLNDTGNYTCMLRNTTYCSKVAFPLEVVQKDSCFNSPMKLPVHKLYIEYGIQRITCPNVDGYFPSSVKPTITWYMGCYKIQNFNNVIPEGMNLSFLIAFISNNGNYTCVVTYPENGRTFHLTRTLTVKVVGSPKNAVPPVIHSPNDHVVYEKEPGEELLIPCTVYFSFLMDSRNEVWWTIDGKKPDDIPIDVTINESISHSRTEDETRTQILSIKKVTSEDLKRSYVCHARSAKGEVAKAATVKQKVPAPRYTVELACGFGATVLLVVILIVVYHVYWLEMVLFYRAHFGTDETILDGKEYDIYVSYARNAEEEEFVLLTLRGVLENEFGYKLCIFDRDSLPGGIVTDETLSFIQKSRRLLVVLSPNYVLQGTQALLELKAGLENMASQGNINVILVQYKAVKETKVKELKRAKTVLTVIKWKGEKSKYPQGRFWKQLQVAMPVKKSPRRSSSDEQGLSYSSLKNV

B1: Anti-IL-1RAP-C3-A3 mmIgG2a LALA (antibody, V domains shown)
VH: EVQLLESGGGLVQPGGSLRLSCAASGFIFSHYGMSWVRQAPGKGLEWVSAISYDGEGTLYADSVKGRFTISRDNSKNTLYLQMNSLRAEDTAVYYCARFRYYTAFDYWGQGTLVTVSS
VL: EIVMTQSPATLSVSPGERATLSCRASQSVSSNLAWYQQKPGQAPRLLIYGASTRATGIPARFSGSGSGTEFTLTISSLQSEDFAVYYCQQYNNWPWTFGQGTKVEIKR
notes: also called anti-IL-1RAP-C3-A3 mouse IgG2a LALA
B2: Anti-IL-1RAP-C8-RecC-ES-IgG1LALA (antibody, V domains shown)
VH: QVQLVQSGAEVKKPGSSVKVSCKASGSPAEPYAIQWVRQAPGQGLEWMGYIIPSLGGYDYAQKFQGRVTITADESTSTAYMELSSLRSEDTAVYYCARGQTLYESGRQFDIWGQGTLVTVSS
VL: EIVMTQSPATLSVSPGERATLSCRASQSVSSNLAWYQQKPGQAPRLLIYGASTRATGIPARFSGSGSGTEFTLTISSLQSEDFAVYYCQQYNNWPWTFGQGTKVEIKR
notes: also called ISB 880-C8-recC-ES

What was measured:
[1] = molecular target: T1, Mouse IL-1RAP, membrane-bound on …; assay: flow cytometry on NIH-3T3 cells, PE-Cyanine7 secondary antibody, relative mean fluorescence intensity (isotype subtracted); upper of two curves
Protocol: In brief, cells were harvested, counted, and plated at 50′000 cells/well in a 96-well round-bottom plate. The plate was centrifuged at 350 g for 3 minutes and the cells were resuspended in […] of FACS® buffer (PBS (1×)+2.5% FCS+2 mM EDTA+0.05% NaN₃) containing various concentrations (ranging from 20 to 0.0001 μg/ml) of either anti-mouse IL-1RAP_candidate_1 or Isotype control_2 antibodies. Stained cells were incubated for 30 minutes at 4° C., washed twice with FACS® buffer at 350 g for 3 min and resuspended in 100 μl of a monoclonal anti-mouse IgG PE-Cyanine7 secondary antibody (Biolegend, 407114) diluted 1/200 in FACS® buffer. Cells were then washed twice, and resuspended in 200 μl of FACS® buffer containing SYTOX® Green dead cell stain (THERMO FISHER […]®, S34860) and samples were acquired on a CYTOFLEX® instruments (Beckman Coulter). The cells were gated based on size on FSC vs SSC and analysed for PE-Cyanine7-geometric mean (geomean) fluorescence intensity using FLOWJO® software. Finally, relative geomean fluorescence intensity was calculated by subtracting fluorescence of anti-mouse IL-1RAP_candidate_1 per fluorescence of Isotype control_2. As depicted in FIG. 11, anti-mouse IL-1RAP_candidate_1 antibody recognizes membrane-bound IL-1RAP expressed on NIH-3T3 cell line. […] Each data point is a measurement for a given cell line. […]

[2] = molecular target: T2, Cynomolgus IL-1RAP on normal cynomolgus …; assay: flow cytometry on normal cynomolgus fibroblasts, nonlinear sigmoidal regression
Protocol: Bound antibodies were detected with a monoclonal anti-human IgG PE-Cyanine7 secondary antibody. The graphs show the nonlinear sigmoidal regression binding curves (Relative Geometric Mean Fluorescence Intensity) for each cell lines. Each data point is a measurement for a given cell line. Multiple independent experiments were performed across several donors (HaCaT and HaCaT IL-1RAP KO: 4 and 3 independent experiments; Human Dermal Fibroblasts: 2 independent experiments—total of 5 donors; Human Neutrophil: 2 experiments—total of 6 donors; Cyno Dermal Fibroblasts: 2 independent experiment—total of 4 donors).
In brief, cells were harvested, counted, and plated at 50,000 cells/well in a 96-well round-bottom plate. The plate was centrifuged at 350 g for 3 minutes and the cells were resuspended in 50 μl of FACS® buffer (PBS (1×)+2.5% FCS+2 mM EDTA+0.05% NaN₃) containing various concentrations (ranging from 50 to 0.00003 μg/ml) of either anti-human IL-1RAP_candidate_1 or Isotype control_5 antibodies. […] The cells were gated based on size on FSC vs SSC and analyzed for PE-Cyanine7-geometric mean (geomean) fluorescence intensity using FLOWJO® software. Finally, relative geomean fluorescence intensity was calculated by subtracting fluorescence of anti-human IL-1RAP_candidate_1 per fluorescence of Isotype control_5. […]

Binder | EC50 (read off the curve) [1] [µg/mL] | Kd [2] [nM]
B1 | ~0.01 | –
B2 | – | 1.55
